B2: CD27L endolysin, full length, wild type (enzyme, bacteriophage ΦCD27, UniProt B6SBV8 1-270, looked up)
chain: MKICITVGHSILKSGACTSADGVVNEYQYNKSLAPVLADTFRKEGHKVDVIICPEKQFKTKNEEKSYKIPRVNSGGYDLLIELHLNASNGQGKGSEVLYYSNKGLEYATRICDKLGTVFKNRGAKLDKRLYILNSSKPTAVLIESFFCDNKEDYDKAKKLGHEGIAKLIVEGVLNKNINNEGVKQMYKHTIVYDGEVDKISATVVGWGYNDGKILICDIKDYVPGQTQNLYVVGGGACEKISSITKEKFIMIKGNDRFDTLYKALDFINR
notes: CD27L endolysin of bacteriophage ΦCD27 (N-acetylmuramoyl-L-alanine amidase domain, linker, C-terminal domain); 270 residues by the construct name CD27L180-270; in pET15b with an N-terminal His tag and a thrombin site; Undergoes continuous autocleavage at M186, so samples also hold the catalytic domain and the C-terminal fragment; also called CD27L (wild-type); recombinant CD27L endolysin; source: …

Data set [1] concerns the target CTP1L endolysin, full length, wild type (bacteriophage that targets C. tyrobutyricum (phage not named)). In words: SEC-RALS/RI/UV (size exclusion chromatography with right-angle light scattering); S75 10/300 GL column, 20 mM HEPES pH 7.4, 500 mM NaCl, room temperature, 75 µL injected at 6.37, 7.15 and 6.17 mg/mL, 0.4 mL/min.
Data set [2] concerns the molecule itself. The data set can be described thus: SAXS; CD27L C238R, 10°C, 20 mM Tris, 500 mM NaCl pH 7.4, 1.0-8.5 mg/mL; volume fractions by OLIGOMER on merged data.
Data set [3] concerns the molecule itself. In words: SEC-RALS/RI/UV (size exclusion chromatography with right-angle light scattering); S75 10/300 GL column, 20 mM HEPES pH 7.4, 500 mM NaCl, room temperature, 75 µL injected at 6.37, 7.15 and 6.17 mg/mL, 0.4 mL/min.
Data set [4] deals with the molecule itself. In words: crystal structure; crystals grown from full-length CD27L that held only the proteolytic C-terminal fragment; six copies in the asymmetric unit; 10-20% PEG 4000, 20 mM Tris pH 8.0; space group P212121.
Data set [5] deals with B2. In words: SEC-RALS/RI/UV (size exclusion chromatography with right-angle light scattering); S75 10/300 GL column, 20 mM HEPES pH 7.4, 500 mM NaCl, room temperature, 75 µL injected at 6.37, 7.15 and 6.17 mg/mL, 0.4 mL/min. Conditions: both partners purified.

In data set [1], “CTP1L endolysin, full length, wild type (enzyme)” returned a stoichiometry N of 2.

B1: CD27L endolysin C238R mutant, full length (enzyme, bacteriophage ΦCD27, UniProt B6SBV8 1-270, looked up)
chain: MKICITVGHSILKSGACTSADGVVNEYQYNKSLAPVLADTFRKEGHKVDVIICPEKQFKTKNEEKSYKIPRVNSGGYDLLIELHLNASNGQGKGSEVLYYSNKGLEYATRICDKLGTVFKNRGAKLDKRLYILNSSKPTAVLIESFFCDNKEDYDKAKKLGHEGIAKLIVEGVLNKNINNEGVKQMYKHTIVYDGEVDKISATVVGWGYNDGKILICDIKDYVPGQTQNLYVVGGGAREKISSITKEKFIMIKGNDRFDTLYKALDFINR
notes: CD27L endolysin of bacteriophage ΦCD27, made by site-directed mutagenesis of pET15b-cd27l; Side-by-side dimer interface mutant; also called CD27L (C238R); CD27L C239R (as printed in the SEC-RALS methods); source: E. coli BL21(DE3), purified as wild-type CD27L (Ni-NTA, SEC); not shown: His tag, N-terminal, kept
Regarding B1, in data set [2], the “stoichiometry N” value turned out to be 2. Take B2: in data set [3], the “stoichiometry N” value was determined as 2.

B3: CD27L endolysin M186P mutant, full length (enzyme, bacteriophage ΦCD27, UniProt B6SBV8 1-270, looked up)
chain: MKICITVGHSILKSGACTSADGVVNEYQYNKSLAPVLADTFRKEGHKVDVIICPEKQFKTKNEEKSYKIPRVNSGGYDLLIELHLNASNGQGKGSEVLYYSNKGLEYATRICDKLGTVFKNRGAKLDKRLYILNSSKPTAVLIESFFCDNKEDYDKAKKLGHEGIAKLIVEGVLNKNINNEGVKQPYKHTIVYDGEVDKISATVVGWGYNDGKILICDIKDYVPGQTQNLYVVGGGACEKISSITKEKFIMIKGNDRFDTLYKALDFINR
notes: CD27L endolysin of bacteriophage ΦCD27, made by site-directed mutagenesis of pET15b-cd27l; Cleavage-site mutant; autocleavage abolished; tends to aggregate; also called CD27L M186P; source: E. coli BL21(DE3), purified as wild-type CD27L (Ni-NTA, SEC)
For B3, the “stoichiometry N” value in data set [3] came to 2.

B4: Proteolytic fragment of CD27L (C-terminal domain released by autocleavage at M186) (domain or fragment, bacteriophage ΦCD27, UniProt B6SBV8 186-270, looked up)
chain: MYKHTIVYDGEVDKISATVVGWGYNDGKILICDIKDYVPGQTQNLYVVGGGACEKISSITKEKFIMIKGNDRFDTLYKALDFINR
notes: CD27L endolysin of bacteriophage ΦCD27, autoproteolytic C-terminal fragment; N-terminal residue identified as M186 by LC-MS; the protein ends at 270 by the construct name CD27L180-270; About 10 kDa; The N-terminal His tag of the parent stays on the catalytic domain; also called CD27L proteolytic fragment; C-terminal domain of CD27L; source: autoproteolytic product of full-length CD27L made in E. …
Turning to B4, the binding result in data set [4] and in data set [5] was “binds” in each case.
